± gives the standard deviation of the averaged measurements.
tested on: ATP; experiment: switch fluorescence ratio, 500 uM ATP over buffer (Cy3 cluster intensity, sum of 5 cycles each) (fold (ratio)); higher = stronger signal-on switching upon ATP binding; sequences stand for … in TCGTCGGCAGCGTCAGATGTGTATAAGAGACAGTTTTTTTTTTTTTTTTTTTTTTTTT…TC; details: aptamer strand: ATP DNA aptamer (quencher-CACCTGGGGGAGTATTGCGGAGGAAGG + anchor), 100 nM annealed; ATP concentration: 500 uM
In short: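 Per cluster, summed Cy3 intensity from the target cycles was divided by that from the buffer cycles to give the fluorescence ratio, then averaged per switch-domain sequence. Clusters outside 100-1000 RFU were excluded. The Cy3-labelled switching-strand clusters, on a modified Illumina MiSeq flow-cell, were annealed to 100 nM quencher-labelled ATP aptamer and imaged in selection buffer, then after 15 min with 500 uM ATP at 22 °C, for five cycles with NaOH stripping and re-annealing between them.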
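Further: ATP exposure 15 min at 22 °C before imaging.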

Sequence | switch fluorescence ratio
TCTGATTTGG | 0.978 ± 0.028
TATTGCCGCA | 1.057 ± 0.0085
CGATTTTTAG | 0.98 ± 0.032
AGAATTAGGC | 0.999 ± 0.021
ATTTTACCAT | 1.04 ± 0.075
ATGCGGGGGG | 1.01 ± 0.021
AATAACGGTG | 1.07 ± 0.019
TTCATGATTG | 0.999 ± 0.011
AATGAAGTCG | 0.997 ± 0.064
GCAGCAATTG | 3.03 ± 0.19
AGCTGTAGTT | 1 ± 0.034
GAAACTAGTT | 0.992 ± 0.013
TTGACTTGTT | 1.02 ± 0.068
CGAGCGTGTG | 0.9998 ± 0.0047
ATACCGAAGT | 1.17 ± 0.18
CGTCATCCAT | 0.9881 ± 0.0021
GTGACCGCCC | 1.49 ± 0.39
TAGTTCTTAA | 0.984 ± 0.064
GGTCGAGGGG | 0.997 ± 0.021
GGGGGCGCGG | 0.996 ± 0.015
AGTGCAGGCA | 1 ± 0.034
TAGCTGTTAT | 0.997 ± 0.03
TGTGTGGGTC | 0.991 ± 0.028
TGAGGGGGGT | 0.976 ± 0.025
TTATTTGTTA | 1.01 ± 0.041

Sequence | switch fluorescence ratio
TTTTGAAGTT | 1 ± 0.039
GGGTGGGAGG | 0.991 ± 0.034
GTTTGTATAG | 1 ± 0.03
TACCATTTAG | 0.997 ± 0.025
ATTTTTATGA | 0.967 ± 0.015
GATCTTGGGT | 1.11 ± 0.19
AGGTAGTTC | 0.96 ± 0.1
ACGTGGAAGC | 1.04 ± 0.043
GTGATAATGT | 0.981 ± 0.027
GATTTCAGCT | 0.997 ± 0.019
ATCGGGCTGC | 1 ± 0.038
GGGATAGGGT | 1 ± 0.027
TTTGAATTCG | 1.009 ± 0.0022
GCTAAAGAAA | 0.974 ± 0.028
TTTCCATGGA | 0.984 ± 0.029
AAAAAGTCAT | 0.967 ± 0.021
ATCCTCGGGA | 1.01 ± 0.034
TTTACCGGTA | 1.01 ± 0.023
CCACTGGGCG | 1.07 ± 0.014
AAAACTCCGA | 1.07 ± 0.097
GAAAGGCAAA | 1.025 ± 0.0026
TGTTGTTTGA | 0.991 ± 0.016
GGACATATTA | 1 ± 0.028
TCTGTAGCGG | 1.13 ± 0.037
GGGGAACTTC | 1.05 ± 0.045

Sequence | switch fluorescence ratio
GTGAGAATTT | 1.05 ± 0.075
TCCGGGGGTG | 1.09 ± 0.13
CATTACAGTG | 1.01 ± 0.014
GGGTTGGTTA | 1 ± 0.04
ATGTAATTTG | 0.988 ± 0.03
ACTTCCGGG | 1.33 ± 0.27
GACAAAGGAC | 1.47 ± 0.09
TCGGTGAGGT | 0.9988 ± 0.0027
AGGGGTTTTT | 0.991 ± 0.011
ACTCCTGTAA | 1.13 ± 0.11
TGCGGGGGCG | 0.992 ± 0.038
GGCATAGCCC | 0.954 ± 0.024
AGGGGGTCTG | 0.968 ± 0.017
TTCGAAGCAC | 2.74 ± 1.7
TATGGTCCTG | 0.962 ± 0.023
CGGTCAGGGC | 1.02 ± 0.014
TTGCTATTTC | 1 ± 0.058
GGGTGCTGGG | 0.999 ± 0.042
GGGTGATGAA | 1 ± 0.045
TACGGCGGAA | 1.02 ± 0.047
CCATCGTAAT | 4.84 ± 1.1
ATTAACTTCG | 0.983 ± 0.013
ACGGCATTGC | 1.19 ± 0.037
TTATTGCTTT | 1 ± 0.036
CATGAAAAGT | 0.978 ± 0.047

Sequence | switch fluorescence ratio
GGGGGGCAAA | 1 ± 0.015
CGCGGGGCGC | 1.03 ± 0.028
TATCCCGGCG | 0.9977 ± 0.0082
CCCCGAAACT | 2.28 ± 1.5
CCAATGGATA | 1.03 ± 0.02
GAGCAACGGA | 1.02 ± 0.031
AGTGGGAATC | 0.989 ± 0.032
TTCACGCTAG | 1.0378 ± 0.00056
TTCGGGCGAA | 1 ± 0.029
AATCTGGGAG | 0.996 ± 0.015
TGTGGGGATT | 1.02 ± 0.032
TAGATAAATT | 0.9965 ± 0.008
TAAAACGGTG | 1.05 ± 0.029
GGTGGATTGG | 1.07 ± 0.1
AATCGGATGG | 1.02 ± 0.037
TGTTTTCCCT | 0.979 ± 0.053
TCGGCACGGA | 0.999 ± 0.031
ACTTATCAGG | 1.04 ± 0.045
GCGGCATAAT | 1.02 ± 0.026
GTAAATATAG | 0.9813 ± 3.7e-05
GTTGTTCTGA | 0.9718 ± 0.0033
GTGGGTTTTT | 1.01 ± 0.032
GCTACTTAAA | 1.03 ± 0.025
GCTTGTTATG | 0.9931 ± 0.007
AGCCCTGGCG | 0.9504 ± 0.0071

— the supplement of paper PMC10126150
